One experiment addresses T1, P. abyssi aCBF5 protein (Pyrococcus abyssi, UniProt Q9V1A5 1-334).
T1 sequence (looked up): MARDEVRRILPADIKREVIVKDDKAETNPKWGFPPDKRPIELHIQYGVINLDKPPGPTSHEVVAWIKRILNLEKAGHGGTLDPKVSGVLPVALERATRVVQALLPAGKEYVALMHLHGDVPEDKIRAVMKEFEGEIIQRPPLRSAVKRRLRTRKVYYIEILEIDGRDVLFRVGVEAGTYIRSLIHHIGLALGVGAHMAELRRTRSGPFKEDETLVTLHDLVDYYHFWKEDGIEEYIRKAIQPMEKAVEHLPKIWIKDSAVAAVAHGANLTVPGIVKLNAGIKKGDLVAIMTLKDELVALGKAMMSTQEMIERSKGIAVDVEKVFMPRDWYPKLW
Description: cell-based or functional assay.

The next experiment addresses T2, aCBF5 K53A variant (Pyrococcus abyssi, UniProt Q9V1A5 1-334, K53A).
T2 sequence (looked up): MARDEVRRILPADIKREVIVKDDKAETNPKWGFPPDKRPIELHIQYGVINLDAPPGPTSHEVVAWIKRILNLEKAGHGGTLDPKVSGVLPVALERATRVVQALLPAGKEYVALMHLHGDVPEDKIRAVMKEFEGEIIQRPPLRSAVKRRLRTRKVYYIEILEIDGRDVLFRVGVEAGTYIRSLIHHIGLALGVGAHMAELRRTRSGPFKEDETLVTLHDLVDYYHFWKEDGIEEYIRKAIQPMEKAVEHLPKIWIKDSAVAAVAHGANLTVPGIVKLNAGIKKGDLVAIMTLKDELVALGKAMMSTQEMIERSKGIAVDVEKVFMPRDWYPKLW
As to the kind of experiment: native gel or EMSA. For orientation: A gel shift assay detects complexes by their altered migration in electrophoresis.

The next experiment deals with T3, aCBF5 H77A variant (Pyrococcus abyssi, UniProt Q9V1A5 1-334, H77A).
T3 sequence (looked up): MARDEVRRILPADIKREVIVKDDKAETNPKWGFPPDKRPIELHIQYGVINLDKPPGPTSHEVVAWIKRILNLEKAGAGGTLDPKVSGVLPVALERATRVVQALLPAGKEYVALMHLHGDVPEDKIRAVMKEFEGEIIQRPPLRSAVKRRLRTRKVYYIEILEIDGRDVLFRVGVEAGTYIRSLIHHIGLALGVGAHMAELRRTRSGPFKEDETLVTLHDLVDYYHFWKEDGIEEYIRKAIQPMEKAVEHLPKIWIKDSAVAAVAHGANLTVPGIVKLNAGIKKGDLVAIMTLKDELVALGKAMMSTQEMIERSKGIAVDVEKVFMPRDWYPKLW
As to the kind of experiment: native gel or EMSA.

The target of a further experiment is T4, aCBF5 R202A variant (Pyrococcus abyssi, UniProt Q9V1A5 1-334, R202A).
T4 sequence (looked up): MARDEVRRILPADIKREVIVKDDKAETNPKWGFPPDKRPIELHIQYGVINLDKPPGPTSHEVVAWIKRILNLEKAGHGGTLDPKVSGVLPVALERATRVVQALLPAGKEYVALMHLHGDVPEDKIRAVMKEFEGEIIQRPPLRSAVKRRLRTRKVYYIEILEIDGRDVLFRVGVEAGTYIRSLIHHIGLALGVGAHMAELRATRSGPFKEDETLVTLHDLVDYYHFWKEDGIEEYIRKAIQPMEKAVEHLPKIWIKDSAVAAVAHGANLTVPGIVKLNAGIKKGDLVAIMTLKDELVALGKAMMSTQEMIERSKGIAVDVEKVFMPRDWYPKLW
As to the kind of experiment: native gel or EMSA.

B1: P. abyssi aNOP10 protein (natural protein, Pyrococcus abyssi, UniProt Q9V0E3 1-60, looked up)
chain: MRFRIRKCPKCGRYTLKETCPVCGEKTKVAHPPRFSPEDPYGEYRRRLKRELLGIGRKEK
As to B1, the “level of aCBF5-tRNAAsp complexes by EMSA, with against without aNOP10” value in the experiment with P. abyssi aCBF5 protein is approximately 4 fold. The binding result with aCBF5 K53A variant, in the experiment with aCBF5 H77A variant and in the experiment with aCBF5 R202A variant was “binds” in each case.

The record behind these values is paper PMC2018633 (Nucleic Acids Research, 2007).
